The values below are quoted from earlier work in article PMC3906610.

The data set deals with PagP (Escherichia coli) (UniProt P37001).
Chain of UniProt P37001 (P37001 26-186): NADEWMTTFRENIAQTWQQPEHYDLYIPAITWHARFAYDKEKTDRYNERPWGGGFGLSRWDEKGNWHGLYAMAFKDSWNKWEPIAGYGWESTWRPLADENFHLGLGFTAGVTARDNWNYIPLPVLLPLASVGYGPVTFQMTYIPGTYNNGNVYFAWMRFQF

The Kd is a measure of binding affinity in units of concentration. As to Skp (from UniProt P0AEU7), the Kd is 11.8 nM.
